Test system: CC(=O)Oc1ccc([N+](=O)[O-])cc1
Assay: purified protein
Conditions: pH 7.5

Axe (Streptococcus pneumoniae D39) was tested, and the Km was 4.4 ± 0.58 mM.

— PMC5352144, “Deacetylation of sialic acid by esterases potentiates pneumococcal neuraminidase activity for mucin utilization, colonization and virulence” (PLoS Pathogens, 2017)
